Legend:
[1] = test system: AAVS1 ZFN left (synthetic); assay: cell_activity; details: pair with right ZFN; A549 clones positive for HindIII site (308 of 933); none with oligo alone
[2] = test system: AAVS1 ZFN right (synthetic); assay: cell_activity; details: pair with left ZFN; A549 clones positive for HindIII site (308 of 933); none with oligo alone

Sequence | activity [1] [%] | activity [2] [%]
ACCCCACAGTGG (double strand) [AAVS1 left ZFN binding site] | 33 | –
TAGGGACAGGAT (double strand) [AAVS1 right ZFN binding site] | – | 33

— patent US20130137180
